From the supplement of paper PMC9170038

Tests used:
[1] = test system: MS2 coat protein; experiment: apparent KD of MS2 coat protein; designed switch direction (-1 OFF switch, 1 ON switch): 1; higher = weaker reporter binding; details: Eterna round: R98
Procedure: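 RNA-MaP: designed FMN/MS2 RNA switches (84 nt design region) are transcribed on-chip within common flanks and titrated with SNAP-549-labelled MS2 coat protein (about 1-3000 nM) in 100 mM Tris pH 7.5, 80 mM KCl, 4 mM MgCl2, without or with 200 uM FMN. Median apparent KD per design; activation ratio = KD,OFF / KD,ON.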

[2] = test system: MS2 coat protein; experiment: apparent KD of MS2 coat protein, switch ON state; designed switch direction (-1 OFF switch, 1 ON switch): 1; higher = weaker reporter binding; details: FMN input: 0 or 200 uM; Eterna round: R93 (includes R88 designs)
In short: (§1)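 Apparent KD was obtained for each design as the median of normalised binding-curve fits over its clusters. RNA switches transcribed on-chip from Illumina sequencing clusters were titrated with SNAP-549-labelled MS2 coat protein (twofold steps, 0.7 or 1.5 nM to 3 µM) in 100 mM Tris-HCl pH 7.5, 80 mM KCl, 4 mM MgCl2, without or with constant ligand.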

[3] = test system: MS2 coat protein; experiment: apparent KD of MS2 coat protein, switch OFF state (with FMN for OFF switches, without FMN for ON switches); designed switch direction (-1 OFF switch, 1 ON switch): 1; higher = weaker reporter binding; details: FMN input: 0 or 200 uM; Eterna round: R93 (includes R88 designs)
In short: as §1

Sequence	apparent KD of MS2 coat protein ([1]; input ligand: FMN 200 uM)	apparent KD of MS2 coat protein ([1]; input ligand: none)	apparent KD of MS2 coat protein [2]	apparent KD of MS2 coat protein [3]
AAAACAUGAGGAUCACCCAUGUAAAGAACGGUUAAUAAAAGUGAGGAUAUACAAAAUUUUAUAUAGUAGAAGGCACUGGGUACA [JR_SSNG3_Sub008]	23.9 nM	20.6 nM	–	–
ACAUACUUUCGAGGAUAUCGGUGAUAAAUUUGACGAGAAGGCGAUAAAAGAUAUAAUCUUAUAGACAUGAGGAUCACCCAUGUA [JR_SSNG1_Sub015]	36.8 nM	43.3 nM	–	–
AGAACAUGAGGAUCACCCAUGUUAAGGUCGGUAAAUAAGGGUGAGGAUAUGCUUAAAAUAAGGUAGCAGAAGGUGCUUGGUGCA [SameState #76 NG3]	146 nM	163 nM	–	–
CACACAUGAGGAUCACCCAUGUCGUGGGCGGAAAACUGUGCACAGGAUAUGGUGAGGGCAACUCACCAGAAGGGUGGUCAGGAA [Zaenen]	63.1 nM	100 nM	–	–
CACACAUGGUGAGGAUAUGCAAAGGAUCACCUUGUAGAAGGCAUCAGGGUAGAAGGUGCAAGGAUCACCUGUAAGGAUAUAUCC [pwkr2 ssNG1 DX.24]	395 nM	1210 nM	–	–
CACGUCCACACAGGAUAUGCUGGACUUUGUCCAGCAGAAGGGUGACAACAUGAGGAUCACCCAUGUAGGACGUGUAUAUUUAAG [Mat - Same State NG 1 - Eli mod - D100]	188 nM	2090 nM	–	–
CAGCAAUUCUUAGGAUAUGCUCAGGAAUACUGAGCAGAAGGAAGAUAUACCUGAGGAUCACCCAGGUUAAACUGAAGCUGAAAA [Same State NG1 - A3C, U17G Submission 7A]	28.5 nM	21.2 nM	–	–
CAUGUCCUCACAGGAUAUGCUGGACUUUGUCCAGCAGAAGGGUGAACAUGAGGAUCACCCAUGUUGUGGACAUGUAUAUUUAAU [Denovo 12]	526 nM	394 nM	–	–
CGGAUGCAAAUAAAACAUGAGGAUCACCCAUGUGAGUCUCAUGAGGAUAUGCAGGUCAAAGACUUGCAGAAGGCAUGGCGUCCG [Mat - Same State NG 3 - JL Mod - D71]	107 nM	1840 nM	–	–
CGUGUGGCAUGAGGAUAUGGUCAGCUUUGCUGACCAGAAGGCAUGUCAAUAGACAUGAGGAUCACCCAUGUAGUUAACACACGA [Mat - Same State NG 1 - JL Mod - D23]	44 nM	575 nM	–	–
GAAGACAUAGUUCAGGAUAUAGGAAUAGUCACAUGAGGAUCACCCAUGUGCAUUUAUAUGCGCGCUUAGAAGGGAGGUAGUUAUA [SameState2 Malc#21]	–	–	24.2 nM	23.9 nM
GAAGACAUAGUUCAGGAUAUGGGAAUAGUCACAUGAGGAUCACCCAUGUGCAUUUAUAUGCGCGCUCAGAAGGGAGGUAGAUAAU [Mat - Same state - Malcolm Mod - D118]	–	–	26.9 nM	27 nM
GAGAAACAUGAGGAUCACCCAUGUAGAAAUAUGGGAGGAUAUACAAAGACGAGAGUCAAAGUAGAAGGCCUAGAAG [77%, Mat - Mod of Eli - With 3 more G's]	–	–	18.8 nM	53.6 nM
GAUAGACAUGAGGAUCACCCAUGUAGAAUUAUGGGAGGAUAUACAAAGACGAGAGUCAGAGUAGAAGGCCUAGGAG [salish99-ss1-158]	–	–	28.1 nM	69.2 nM
GCAGAAGGUGCAGAGGAUCACCCUGUAAGGAUAUGCAUUAGCAAGGAUAUACAGAGGAUCACCCUGUAGAAGGUGCACUACUCU [pwkr2 ssNG3 DX.2]	420 nM	2070 nM	–	–
GCGAAUAUGGGUUAGGAUAUGCGCGCAUGUACAUGAGGAUCACCCAUGUUUACGGGCGCCUUUGAGCAGAAGGAGCUAAUCAACGC [SameState2Try2_Neo]	–	–	21.5 nM	24.2 nM
GCGGGCCUCACAGGAUAUCUGGUCCCGACAUGAGGAUCACCCAUGUAGGGCAGCUUAAGAAUGCCAGAGAAGGGUGACCAAUAU [Xexemaeron]	102 nM	315 nM	–	–
GCUGCUAUCGCAGGAUAUUACAUGGGAAAGAAUACAUGAGGAUCACCCAUGUAAAAGAUCAUAAAUAAGAAGGGCGAUAGCAGC [Lame State 6 - Jieux - Same State NG 2]	159 nM	774 nM	–	–
GCUGUCGCAUGAGGAUAUGGUCAGCUUUGCUGACCAGAAGGCAUGUCGAUAGACAUGAGGAUCACCCAUGUAGUAAAGACAGCA [jl-sng1-2.08 jl mod]	66.6 nM	693 nM	–	–
GGAAAGAAAAGCGAGGAUAUGCUAGGUAAUACAUGAGGAUCACCCAUGUUUUUUUUUAACAAAUUGCAGAAGGCGCAAGAAAGAAA [Ungainly]	–	–	16.5 nM	18.2 nM

Sequence	apparent KD of MS2 coat protein ([1]; input ligand: FMN 200 uM)	apparent KD of MS2 coat protein ([1]; input ligand: none)	apparent KD of MS2 coat protein [2]	apparent KD of MS2 coat protein [3]
GGAAAUAAAAGAGAGGAUAUCCAAAAGGAAACAUGAGGAUCACCCAUGUAAAAGAAAGGAAAAUGGGAGAAGGCUCAAAAUAAAG [salish99-ss2-004]	–	–	44.2 nM	56.1 nM
GGAAAUAACAGAGAGGAUAUCCAAAGGAAAACAUGAGGAUCACCCAUGUAAAAGGAAGGAAAUUGGGAGAAGGCUCAAAAUAAUC [salish99-ss2-017]	–	–	23.9 nM	24.3 nM
GGAACACAUGAGGAUCACCCAUGUCAAGGAGGUCGAGGAUAUAGGAAAAAAAAAAAAAAAUUAGAAGGUGAGGAGG [V1]	–	–	169 nM	139 nM
GGAAGACAUGAGGAUCACCCAUGUGGGAAUAUGGGAGGAUAUACAAAGACGAGAGUCAGAGUAGAAGGCCUAGGAA [salish99-ss1-99]	–	–	37.8 nM	176 nM
GGAGCCGGCACUGAGGAUAUUCAUAUUAAAACAUGAGGAUCACCCAUGUAGGCCAGAAGGCCUUGGGAGAAGGCAGGUCGACUCG [Diqureveri]	–	–	20.8 nM	288 nM
GGAGUACAUGAGGAUCACCCAUGUUGGAACGAAGUAGGAUAUGUACAAUAUUAAAUAAAAACAGAAGGACUAAUAA [Meow]	–	–	30.4 nM	55.1 nM
GGAUACAUACAGAAGGAUAUGAGAACAAAGACAUGAGGAUCACCCAUGUACAAAAGGUGGAACAAUCAGAAGGUCUAAACAACAAA [Club and Ball]	–	–	57.6 nM	52.1 nM
GGGAGACAUGAGGAUCACCCAUGUGAGAAGAGGCGAGGAUAUCGAAAGAAAGAAGAGAAACGAGAAGGCGCGAGGG [salish99-SS1-059]	–	–	57.4 nM	75 nM
GGGAGACAUGAGGAUCACCCAUGUGAGAAGAGGCGAGGAUAUCGAAAGAAAGAAGAGAAACGAGAAGGCGCGAGUU [salish99-SS1-054]	–	–	35 nM	54.7 nM
GGUCGUCACAUCUACAUGAGGAUCACCCAUGUCGAAAGACAUGAGGAUAUGCAUCCUAAUUGGAUGCAGAAGGCAUGGACGACC [Mat - Same State NG 3 - JL Mod - D22]	65.1 nM	1920 nM	–	–
GUAGAACAUGAGGAUCACCCAUGUGAAGACGCAUGAGGAUAUAUCCGUACAUAGCAUACGAUAGAAGGCAUGAUAA [JR_SS001_Sub1704]	–	–	29.6 nM	90.6 nM
GUCCAACAUGAGGAUCACCCAUGUAAGCGUGAUCAAGGAUAUGGGCGAAAGAAAACGCAACCAGAAGGUGAGCGCC [Aanmati]	–	–	160 nM	135 nM
UAAAAACAUGAGGAUCACCCAUGUGAGAACAUGGGAGGAUAUACAAGGACGAAAGUCAAAGUAGAAGGCCUAAAAU [Mat - Same State 1 - Mod - D176]	–	–	99.8 nM	29.3 nM
UAUCAUUACACGAAGGAUAUCGAUAAUUGAACAUGAGGAUCACCCAUGUGACAUAUCUUACAGUUCGAGAAGGUCGAGGGUGAAG [JR_SS002_Sub706]	–	–	28.9 nM	52 nM
UCACUCACGUUAGGAUAUGGAUCGGAAAACGAUCCAGAAGGAACCUGCAAACCUGAGGAUCACCCAGGUUCCAAUAACGAGUGA [SameSame 7 - Jieux - Same State NG 1]	259 nM	368 nM	–	–
UGAAAACAUGAGGAUCACCCAUGUCUAGGAAAUCAAGGAUAUGGGCCGGCAAUAGGCGGGCCAGAAGGUGAGAAAU [Arisati]	–	–	88.7 nM	144 nM
UGAUUGAGAUUGUAGGAUAUUGGAAAAGCCACAUGAGGAUCACCCAUGUCAAAAAAAAAAAAAAACAAGAAGGGCGGUUUUAGUUA [Same State 2]	–	–	58.4 nM	64.5 nM
UGUUUGAGCAUAGGAUAUACUGGGAAGGUCCACAUGAGGAUCACCCAUGUAGAGGCUGUUAGACAGUAGAAGGGUGAUCCGAUA [Zariatbege]	410 nM	9.94 nM	–	–
UUAAGCCGCGGGCAGGAUAUGUAUUAAAAUACAUGAGGAUCACCCAUGUGCAGGUGUAACACCUGACAGAAGGGCCAAUCGCAGC [Ceanreerqu]	–	–	26.4 nM	228 nM
UUUAGGAAGAGAGAGGAUAUCCAAAGGAAAACAUGAGGAUCACCCAUGUAAAAGGUAGGAAAUUGGGAGAAGGCUCAAGAGAGAG [salish99-ss2-078]	–	–	5.84 nM	16.5 nM
